Measurements as given in patent publication US20200239586A1 (LA TROBE UNIVERSITY, published 2020).
Blank lines part the entries; values can stand above or below the binder they belong to.

Tests used:
[1] = target: T1, synthetic peptide hFn14 sub-domain 2 (human, biotin on the added C-terminal lysine; disulfide bonds as in the solution structure of He et al. 2009); test: ELISA, synthetic biotin peptide on neutravidin plate; antibody concentration not given
T1 construct: also called sub-domain 2 peptide
T1 peptide: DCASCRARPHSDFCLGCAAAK
Description: FIG. 21B is a graphical representation showing reactivity of anti-Fn14 mAbs CRCBT-06-001, CRCBT-06-002, CRCBT-06-003, CRCBT-06-004, CRCBT-06-005, CRCBT-06-006, CRCBT-06-007 and ITEM-1 with a synthetic peptide representing sub-domain 2 of Fn14. Plates were coated with sub-domain 2 peptide and various dilutions of antibody were allowed to bind, bound antibody was detected with anti-mouse HRP and TMB substrate. The average of duplicate readings are plotted, error bars represent standard deviations. The ELISA was repeated to ensure consistent results. The vertical line at 5 ng/ml within the linear part of the curves is the point at which a comparison of the reactivity of each mAb was analyzed.
The ELISA was performed essentially according to the manufacturer's recommended protocol (Pierce). Briefly, peptide was coated onto wells (in duplicate) at 1-10 μg/ml for 2 hours at room temperature. Wells were washed in PBS/0.05% Tween 20/0.1% BSA 3 times and dilutions of each antibody were added in wash buffer for 1 hour with gentle agitation. After another three washes anti-mouse HRP-conjugated to horse radish peroxidase (HRP; Chemicon) was added at 1/1000 dilution for 1 hour shaking. […] Optical density at 450 nm was quantified using a Spectromax absorbance spectrophotometer.

[2] = target: phage expressed hFn14 mutant D51A (human, UniProt Q9NP84 28-77); test: phage ELISA (Method 2): antibody coated on the plate, 10-fold dilutions of phage displaying hFn14 D51A; biotin anti-M13 antibody, streptavidin-HRP, TMB, OD 450 nm; x axis = dilution of phage
Sequence of phage expressed hFn14 mutant D51A (Q9NP84 28-77 D51A): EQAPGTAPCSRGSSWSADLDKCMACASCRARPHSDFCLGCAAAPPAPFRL
Description: ELISAs showing the reactivity of mutant hFn14 phage constructs with the anti-Fn14 monoclonal antibodies CRCBT-06-001, CRCBT-06-002, CRCBT-06-004 compared to ITEM-1 and ITEM-4. Binding was detected using Biotin-conjugated anti-M13-phage monoclonal antibody followed by HRP-conjugated Streptavidin and TMB substrate. Optical density at 450 nm was quantified using a Spectramax spectrophotometer. Error bars for each dilution represent the standard deviation of duplicate assays. FIG. 28A L46A, FIG. 28B D51A and FIG. 28C D62A. In all cases error bars represent the standard deviation. X axis=dilution of phage. Methods according to Epitope mapping using phage expressed Fn14—Method 2.
The wells of Maxisorp immunoplates (Nunc) were coated overnight at 4° C. with the target monoclonal antibodies or recombinant Tweak-Fc at a concentration of 1.5 μg/ml in PBS. mAb 5G8 was used as a negative control for ELISA plates coated with tested antibodies. […] 10-fold serial dilutions of phage were made using PBS solution and phage dilutions were added to the coated, blocked ELISA plates for 1 hour, shaking at room temperature. […]
Method A: HRP-conjugated anti-M13-phage antibody (GE Healthcare) at a 1/5000 dilution in PBS was then added to the wells of the ELISA plates for 1 hour, shaking at room temperature. […] Optical density at 450 nm was quantified using a Spectramax absorbance spectrophotometer.

[3] = target: T2, human Fn14 (human, UniProt Q9NP84 28-129); test: cell-based or functional assay
T2 sequence: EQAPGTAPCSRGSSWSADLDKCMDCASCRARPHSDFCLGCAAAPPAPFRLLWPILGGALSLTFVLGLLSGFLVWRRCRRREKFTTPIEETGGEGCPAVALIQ

[4] = target: T2, human Fn14; test: cell-based or functional assay; remark: listed apart in the source
[5] = target: phage-displayed hFn14 mutant R38S (human, UniProt Q9NP84 28-77); test: phage ELISA, antibody on plate
Sequence of phage-displayed hFn14 mutant R38S (Q9NP84 28-77 R38S): as the sequence (Q9NP84 28-77 D51A) above, with R11S, A24D counted along it

[6] = target: T3, Fn14 gene fragment RW95 on phage (human, UniProt Q9NP84 37-90); test: phage ELISA, Fn14 gene fragments on phage, CRCBT-06-001 wells versus blank wells
T3 construct: not shown: M13 pIII coat protein (gene fragment library in pHENH6)
T3 sequence: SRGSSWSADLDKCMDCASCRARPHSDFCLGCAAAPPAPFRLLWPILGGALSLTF

[7] = target: T4, Fn14 gene fragment RW129 on phage (human, UniProt Q9NP84 32-74); test: as above
T4 construct: not shown: M13 pIII coat protein (gene fragment library in pHENH6)

[8] = target: T5, Fn14 gene fragment RW131 on phage (human, UniProt Q9NP84 23-69); test: as above
T5 construct: not shown: M13 pIII coat protein (gene fragment library in pHENH6)
T5 chain: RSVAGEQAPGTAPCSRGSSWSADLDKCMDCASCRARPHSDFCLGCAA

[9] = target: T6, Fn14 gene fragment RW120 on phage (human, UniProt Q9NP84 31-74); test: as above
T6 construct: not shown: M13 pIII coat protein (gene fragment library in pHENH6)

[10] = target: T7, Fn14 gene fragment RW125 on phage (human, UniProt Q9NP84 31-74); test: as above
T7 construct: not shown: M13 pIII coat protein (gene fragment library in pHENH6)

[11] = target: T8, Fn14 gene fragment RW114 on phage (human, UniProt Q9NP84 31-70); test: as above
T8 construct: not shown: M13 pIII coat protein (gene fragment library in pHENH6)
T8 chain: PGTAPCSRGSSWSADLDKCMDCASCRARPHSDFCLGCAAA

binding result [1]: binds | binding result [2]: binds | % Agonist, IL-8 secretion by A375 cells [3]: 11% | % Antagonist, IL-8 secretion by A375 cells [3]: 94% | NFκB-GFP reporter in HEK293T cells [4]: 100 ng/mL | binding result [5]: binds
B1: CRCBT-06-002 (antibody, IgG1, V domains shown)
VH: EVKLQQSGGGLVQPGGSMKLSCVASGFTFSYYWMNWVRQSPEQGLEWIAEIRLQSNDYPTHYAESVKGRFTISRDDSKNSVYLQMNNLRPEDTGIYYCACRYADYFDHWGQGTTLTVSS
VL: DTVLTQSPASLVVSLGQRATISCRASQSVSTSDYSYIHWYQQKPGQPPKFLIKYASNRDSGVPARFSGSGSGTDFTLNIHPVEEDDTAIYYCQHSWEIPPTFGAGTKLELQR

binding result [1]: binds | binding result [2]: binds | % Agonist, IL-8 secretion by A375 cells [3]: 128% | binding result [6]: no binding | binding result [7]: binds | binding result [8]: binds | binding result [9]: binds | binding result [10]: binds | binding result [11]: binds | NFκB-GFP reporter in HEK293T cells [4]: 1000 ng/mL
B2: CRCBT-06-001 (antibody, IgG2b, V domains shown)
VH: QVQLQQSGGGLVQPGGSMKLSCIASGFTFSSYWMSWVRQSPEKGLEWVAEIRSKSDNYATHYAESVKGKFTISRDDSKSRFFLQMNNLRAEDTGIYYCSSTYADYFHYWGQGTDLTVSS
VL: DIVMTQTPASLAVSLGQRATISCRASQSVSTSTYSYMHWYQQKPGQPPKLLIKYASSLESGVPARFSGSGSGTDFTLNIHPVEEDDTATYYCQHSWEIPYTFGGGTKLEIKR
